Data reported in patent US20150065561A1 (GEORGIA STATE UNIVERSITY RESEARCH FOUNDATION, published 2015).

Molecular target: T1, CYLD (UniProt Q9NQC7 1-956, limits assumed)
T1 construct: also called deubiquitinase CYLD; cylindromatosis
T1 sequence (looked up): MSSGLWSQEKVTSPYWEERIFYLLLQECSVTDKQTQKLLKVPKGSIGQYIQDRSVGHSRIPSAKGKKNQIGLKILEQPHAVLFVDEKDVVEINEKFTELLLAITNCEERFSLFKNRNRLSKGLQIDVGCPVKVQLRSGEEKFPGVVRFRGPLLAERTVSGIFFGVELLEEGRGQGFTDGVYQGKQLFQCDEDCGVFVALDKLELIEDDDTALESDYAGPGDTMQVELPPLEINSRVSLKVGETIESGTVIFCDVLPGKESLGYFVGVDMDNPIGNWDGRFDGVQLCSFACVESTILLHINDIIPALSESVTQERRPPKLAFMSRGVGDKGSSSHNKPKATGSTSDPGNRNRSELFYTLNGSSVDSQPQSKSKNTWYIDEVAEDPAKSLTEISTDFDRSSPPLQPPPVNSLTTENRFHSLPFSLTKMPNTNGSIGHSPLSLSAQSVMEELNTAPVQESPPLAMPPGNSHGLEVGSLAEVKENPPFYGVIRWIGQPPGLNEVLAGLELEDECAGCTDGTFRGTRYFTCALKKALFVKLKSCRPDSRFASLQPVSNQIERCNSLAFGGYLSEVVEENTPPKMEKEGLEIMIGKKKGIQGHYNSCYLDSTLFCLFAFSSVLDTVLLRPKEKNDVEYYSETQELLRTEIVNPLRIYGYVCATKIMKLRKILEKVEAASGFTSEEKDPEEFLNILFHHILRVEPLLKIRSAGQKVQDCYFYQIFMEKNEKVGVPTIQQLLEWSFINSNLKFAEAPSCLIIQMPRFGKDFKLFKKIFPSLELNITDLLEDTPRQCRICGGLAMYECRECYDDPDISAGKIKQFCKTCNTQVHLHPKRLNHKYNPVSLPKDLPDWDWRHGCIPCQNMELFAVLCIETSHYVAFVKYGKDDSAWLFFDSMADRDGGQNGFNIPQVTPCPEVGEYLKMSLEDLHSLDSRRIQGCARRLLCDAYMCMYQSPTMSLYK
Assay: co-immunoprecipitation
Experimental: Western blot, immunoprecipitation and ubiquitination experiments were performed as follows. Western blots were performed using whole-cell extracts, separated on 8 or 10% SDS-PAGE gels, and transferred to polyvinylidine di& uoride membranes. The membrane was blocked with a solution of PBS containing 0.1% Tween 20 (PBS-T) and 5% BSA. The membrane was then incubated in a 1:2,000 dilution of a primary antibody in 5% BSA-PBS-T. After three washes in PBS-T, the membrane was incubated with 1:5,000 dilution of the corresponding secondary antibody in 3% non-fact skim milk-PBS-T. Respective proteins were visualized by using enhanced chemiluminescence detection reagents, according to the manufacturer's instructions. To conduct immunoprecipitation analysis, cell lysates were incubated with 1 μg of primary antibodies overnight, at 4° C., followed by 2-h incubation with protein A/G-agarose beads (Invitrogen). Immunoprecipitates were then suspended in a sample buffer, separated on 8% SDS-PAGE, transferred to polyvinylidine difluoride membrane, and detected by immunoblot analysis, as described above. […]

B1: CHIP (enzyme, UniProt Q9UNE7 1-303, looked up)
chain: MKGKEEKEGGARLGAGGGSPEKSPSAQELKEQGNRLFVGRKYPEAAACYGRAITRNPLVAVYYTNRALCYLKMQQHEQALADCRRALELDGQSVKAHFFLGQCQLEMESYDEAIANLQRAYSLAKEQRLNFGDDIPSALRIAKKKRWNSIEERRIHQESELHSYLSRLIAAERERELEECQRNHEGDEDDSHVRAQQACIEAKHDKYMADMDELFSQVDEKRKKRDIPDYLCGKISFELMREPCITPSGITYDRKDIEEHLQRVGHFDPVTRSPLTQEQLIPNLAMKEVIDAFISENGWVEDY
binding result: no binding
